Test results: article PMC12263834, “Structural basis of Fanconi anemia pathway activation by FANCM”

T1: FANCM translocase domain (8HIS-FANCM 73-644) (human, UniProt Q8IYD8 73-644)
T1 sequence: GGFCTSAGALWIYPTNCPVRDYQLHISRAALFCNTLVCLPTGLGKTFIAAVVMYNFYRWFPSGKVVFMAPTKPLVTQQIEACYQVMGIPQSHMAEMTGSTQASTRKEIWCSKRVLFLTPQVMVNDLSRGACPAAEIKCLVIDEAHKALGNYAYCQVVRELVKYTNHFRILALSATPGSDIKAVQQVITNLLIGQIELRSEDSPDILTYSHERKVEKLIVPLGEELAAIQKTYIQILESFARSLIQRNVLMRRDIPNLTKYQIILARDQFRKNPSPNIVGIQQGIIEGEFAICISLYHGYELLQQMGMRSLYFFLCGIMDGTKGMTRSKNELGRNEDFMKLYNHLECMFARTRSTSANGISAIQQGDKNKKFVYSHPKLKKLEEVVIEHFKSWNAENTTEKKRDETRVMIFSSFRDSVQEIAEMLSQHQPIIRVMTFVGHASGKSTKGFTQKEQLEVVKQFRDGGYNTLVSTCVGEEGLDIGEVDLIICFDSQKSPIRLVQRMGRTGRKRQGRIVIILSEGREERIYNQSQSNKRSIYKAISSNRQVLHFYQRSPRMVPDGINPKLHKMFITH

T2: FANCM-CTD;FAAP24 (human?;human?, UniProt Q8IYD8;Q9BTP7 1799-2048;1-215, |)
T2 sequence 1: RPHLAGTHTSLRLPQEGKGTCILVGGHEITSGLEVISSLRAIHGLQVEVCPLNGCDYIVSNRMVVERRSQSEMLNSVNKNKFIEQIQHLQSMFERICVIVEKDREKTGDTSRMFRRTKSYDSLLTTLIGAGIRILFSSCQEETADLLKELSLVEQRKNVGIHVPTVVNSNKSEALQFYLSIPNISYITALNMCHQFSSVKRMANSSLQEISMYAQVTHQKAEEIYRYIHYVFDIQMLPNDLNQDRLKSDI
T2 sequence 2: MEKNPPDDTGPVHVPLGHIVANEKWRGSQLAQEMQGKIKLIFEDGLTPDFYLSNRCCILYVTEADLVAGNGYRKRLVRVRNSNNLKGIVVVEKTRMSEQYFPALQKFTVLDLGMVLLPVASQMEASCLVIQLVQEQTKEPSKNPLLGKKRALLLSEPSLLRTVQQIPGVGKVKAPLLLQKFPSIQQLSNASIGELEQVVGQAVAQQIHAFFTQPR

B1: Hairpin15 (3' flap hairpin) (structured_DNA)
DNA: GGTATGAGCACTGCTTAGGCAGTGCTCATACCGCATGGAGCTG
B2: SA1/SA2 splayed duplex (dsDNA)
DNA 1: TACGCATCATCGCTCGGTTTT
DNA 2: TTTTCCGAGCGATGATGCGTA

What was measured:
[1] = molecular target: FANCA (FA core complex component, in cells) [human (endogenous in HCT116 or HEK293 cells)]; test: co-immunoprecipitation (quantified Western blot); conditions: cell-based; n = 3 independent co-immunoprecipitation experiments; parent: 100; read off a plot
[2] = molecular target: FANCE (FA core complex component, in cells) [human (endogenous in HCT116 or HEK293 cells)]; test: co-immunoprecipitation (quantified Western blot); conditions: cell-based; n = 3 independent co-immunoprecipitation experiments; parent: 100; read off a plot
[3] = molecular target: T1, FANCM translocase domain (8HIS-FANCM …); test: crystal structure (2.2 A); 5 mM MgCl2 in protein buffer; Fluorescence anisotropy: 25 mM Tris-HCl pH 8, 20 mM NaCl, 2 mM MnCl2, 0.1 mg/ml BSA, temperature not stated; crystals N-terminal domain: 0.2 M NaCl, 0.1 M HEPES pH 7.0, 32.5% PEG 400, room temperature; CTD: 25% PEG3350, 0.1 M diammonium hydrogen phosphate; conditions: protein: recombinant; tags: 8xHis N-terminal; hairpin, 14 bp stem, TTAG loop, 11 nt 3' flap
FANCM-CTD;FAAP24 = molecular target: T2, FANCM-CTD;FAAP24; test: crystal structure (2.4 A); Mg2+ site in FAAP24; duplex contacted, splayed arms disordered; Fluorescence anisotropy: 25 mM Tris-HCl pH 8, 20 mM NaCl, 2 mM MnCl2, 0.1 mg/ml BSA, temperature not stated; crystals N-terminal domain: 0.2 M NaCl, 0.1 M HEPES pH 7.0, 32.5% PEG 400, room temperature; CTD: 25% PEG3350, 0.1 M diammonium hydrogen phosphate; conditions: protein: recombinant;recombinant; tags: GST (PreScission cleaved);HIS; copies: 1;1; 17 bp duplex with splayed arms: 3' TTTT on SA1 and 5' TTTT on SA2 at the same end

Row | Molecule | percent of parent (% of wild-type FANCM) [1] | percent of parent (% of wild-type FANCM) [2] | further results
1 | Flag-FANCM-wildtype (expressed in cells) mutant V990A [human] / FANCA (FA core complex component, in cells) [human (endogenous in HCT116 or HEK293 cells)] chain 1 V990A | 40 | – | –
2 | Flag-FANCM-wildtype (expressed in cells) mutant V990A [human] / FANCE (FA core complex component, in cells) [human (endogenous in HCT116 or HEK293 cells)] chain 1 V990A | – | 27 | –
3 | Flag-FANCM-wildtype (expressed in cells) mutant P999L [human] / FANCE (FA core complex component, in cells) [human (endogenous in HCT116 or HEK293 cells)] chain 1 P999L | – | 10 | –
4 | Flag-FANCM-wildtype (expressed in cells) mutant P999L [human] / FANCA (FA core complex component, in cells) [human (endogenous in HCT116 or HEK293 cells)] chain 1 P999L | 14 | – | –
5 | B1 | – | – | binding result [3]: binds
6 | B2 | – | – | binding result (FANCM-CTD;FAAP24): binds
